Non-standard residues stand in square brackets, D forms with d. No end group written: not given here. Ahx = NCCCCCC(=O)O

The values that follow come from US20220242939A1 (BIOARCTIC, published 2022).

The target in assay [1] is T1, L198 N-terminal neo-epitope peptide LAGQPL-Acp-C (SEQ ID NO:52) conjugated to BSA (human, not fully specified (residue 8); printed as LAGQPL-Acp-C; also: C-terminal Cys conjugated to BSA carrier).
T1 construct: BSA carrier; also called L198-BSA peptide
T1 peptide: LAGQPL[Ahx]C
Briefly: direct ELISA, L198-BSA peptide coated at 1 µg/ml. In a few lines:
(§1)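 Antigens were coated overnight at 4 °C in PBS, then plates were blocked with protein-free blocker for 1 h. Purified mAbs in 3-fold serial dilutions from 3 μg/ml were bound for 2 h at room temperature, with anti-ApoE C-terminal E-8 as reference. TMB substrate development was stopped with H2SO4 and OD450 was read.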
Background: In an ELISA, binding on a coated surface is turned into a signal by an enzyme label.

For assay [2], the target named is T2, A199 N-terminal neo-epitope peptide AGQPLQ-Acp-C (SEQ ID NO:51) conjugated to BSA (human, not fully specified (residue 8); printed as AGQPLQ-Acp-C; also: C-terminal Cys conjugated to BSA carrier).
T2 construct: BSA carrier; also called A199-BSA peptide
T2 peptide: AGQPLQ[Ahx]C
Briefly: direct ELISA; proteins coated at 0.1 uM, BSA peptides at 1 ug/ml; antibody in 3-fold dilutions from 3000 ng/ml; blank reduced OD 450 nm. The procedure:
(§2) Selectivity evaluation of purified monoclonal antibodies by direct ELISA: The direct ELISA described below was used to evaluate the binding selectivity of the purified monoclonal antibodies produced in Example 14.
(§3) The screening was performed according to standard ELISA protocols. Briefly, 1 μg/ml solutions of BSA-conjugated neo-epitope peptides and negative control peptide, and 0.1 μM recombinant C-terminal ApoE fragment and full-length ApoE (Abcam, cat. no. ab50243) were prepared by dilution in PBS. 50 μl/well were added to an ELISA half-area 96 well microtiter plate, and the plate was sealed with adhesive sealer and incubated over night at 4° C. After discarding the solution, the plates were blocked with 150 μl/well of protein-free blocking solution (Pierce) for 1 h at room temperature with shake (600-900 rpm). The plates were washed four times with washing buffer containing 0.28 mM NaH₂PO₄, 2.5 mM Na₂HPO₄, 150 mM NaCl, 0.1% TWEEN®-20 and 0.0075% Kathon CG. Purified monoclonal antibodies of interest were 3-fold serially diluted with a starting dilution at 3 μg/ml (mixed 1:2 with dilution buffer (PBS with 0.1% BSA and 0.05% TWEEN®-20)). An anti-ApoE C-terminal antibody was used as a reference antibody (ApoE E-8 mouse monoclonal, Santa Cruz Biotechnology, cat. no. sc-393302). 50 μl/well were added into the ELISA plates and incubated for 2 h at room temperature with shake (600-900 rpm). The plates were washed four times as described previously. […] After another wash (as described previously), 50 μl/well of K-Blue® aqueous substrate (Neogen) were added, and the reaction was stopped after 5-15 min with 50 μl/well of 0.5 M […]. The optical density at 450 nm was read using an ELISA reader (Tecan).

Assay [3] addresses T3, recombinant full-length ApoE4 (aa 1-299; SEQ ID NO:45; Abcam cat. no. ab50243) (human, UniProt P02649 19-317).
T3 construct: Bought protein; also called recombinant ApoE4 full-length protein
The assay is described as above. Here is the method: as §2, §3

Assay [4] deals with T4, G200 N-terminal neo-epitope peptide GQPLQE-Acp-C (SEQ ID NO:50) conjugated to BSA (human, not fully specified (residue 8); printed as GQPLQE-Acp-C; also: C-terminal Cys conjugated to BSA carrier).
T4 construct: also called G200-BSA peptide; G200-peptide
T4 peptide: GQPLQE[Ahx]C
Described as above. Here is the method:
as §2, §3

For assay [5], the target named is T5, negative control peptide AATVGSLAGQPLQER-Acp-C (SEQ ID NO:53) conjugated to BSA (human, not fully specified (residue 17); printed as AATVGSLAGQPLQER-Acp-C; also: C-terminal Cys conjugated to BSA carrier).
T5 construct: BSA carrier; also called 192-206 BSA-conjugated peptide
T5 peptide: AATVGSLAGQPLQER[Ahx]C
The assay is described as above. Here is the method: as §2, §3

In assay [6] the target is T6, full-length ApoE in human brain extract from Alzheimer's disease patients (human, UniProt P02649 19-317).
T6 construct: mature; Endogenous protein on Western blot or in solution (IP); also called ApoE full-length protein
T6 sequence (P02649 19-317): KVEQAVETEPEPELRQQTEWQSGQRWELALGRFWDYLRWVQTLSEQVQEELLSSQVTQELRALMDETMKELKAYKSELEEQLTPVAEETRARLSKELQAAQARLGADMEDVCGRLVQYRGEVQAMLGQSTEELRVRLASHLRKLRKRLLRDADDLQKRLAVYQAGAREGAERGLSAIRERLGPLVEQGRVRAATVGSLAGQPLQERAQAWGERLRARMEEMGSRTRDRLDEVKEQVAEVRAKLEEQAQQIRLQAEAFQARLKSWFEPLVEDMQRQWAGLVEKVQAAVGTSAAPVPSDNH
Briefly: Western blot of AD brain RIPA 2% SDS extract; monoclonal antibody at 2 ug/ml as primary antibody.

Assay [7] deals with T7, His-tagged recombinant full-length ApoE4, 10xHIS-ApoE4(1-299) (human, UniProt P02649 19-317).
T7 construct: also called ApoE4-FL-HIS
T7 sequence (P02649 other isoform, or with tags, fused parts or gaps limits assumed): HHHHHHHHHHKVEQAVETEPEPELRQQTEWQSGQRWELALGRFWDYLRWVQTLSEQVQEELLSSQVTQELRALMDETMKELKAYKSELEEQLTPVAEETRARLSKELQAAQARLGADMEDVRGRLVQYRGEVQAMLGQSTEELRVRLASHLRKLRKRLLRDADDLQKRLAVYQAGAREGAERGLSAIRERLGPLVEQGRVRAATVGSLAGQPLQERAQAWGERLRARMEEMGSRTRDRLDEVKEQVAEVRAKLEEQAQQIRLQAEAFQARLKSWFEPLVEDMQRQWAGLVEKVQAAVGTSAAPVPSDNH
Briefly: direct ELISA.

Assay [8] has as its target T8, L198 N-terminal neo-epitope peptide LAGQPLQE-Acp-C (SEQ ID NO:54) conjugated to BSA (human, not fully specified (residue 10); printed as LAGQPLQE-Acp-C; also: C-terminal Cys conjugated to BSA carrier).
T8 construct: BSA carrier
T8 peptide: LAGQPLQE[Ahx]C
Briefly: direct ELISA after limiting dilution.

Assay [9] addresses T9, recombinant C-terminal ApoE fragment L198-HIS (ApoE-L198-H299-10xHIS) (human, UniProt P02649 216-317).
T9 construct: also called L198-HIS fragment
Description: direct ELISA, L198-HIS coated at 0.1 µM. The procedure, abridged: as §1

For assay [10], the target named is T3, recombinant full-length ApoE4 (aa …). Description: direct ELISA, target coated at 1 ug/ml, supernatant in 3-fold dilutions from 1000 ng/ml, OD 450 nm. Here is the method:
(§4) Selectivity evaluation by direct ELISA: The direct ELISA described below was used to evaluate the binding selectivity of generated monoclonal anti-ApoE antibodies with affinity for the N-terminal neo-epitope of C-terminal ApoE fragments starting at amino acid G200.
(§5) The screening was performed according to standard ELISA protocols. Briefly, 1 μg/ml solutions of N-terminal neo-epitope peptide (SEQ ID NO:50) conjugated to BSA, the recombinant C-terminal ApoE fragment G200-HIS (SEQ ID NO:48) and recombinant full-length ApoE4 (SEQ ID NO:45; Abcam; cat. no. ab50243) were prepared by dilution in PBS. 50 μl/well were added to an ELISA half-area 96 well microtiter plate. Then, the plate was sealed with adhesive sealer and incubated over night at 4° C. The plates were blocked with 150 μl/well of protein-free blocking solution (Pierce) for 1 h at room temperature with shake (600-900 rpm). The plates were washed four times with washing buffer containing 0.28 mM NaH₂PO₄, 2.5 mM Na₂HPO₄, 150 mM NaCl, 0.1% TWEEN®-20 and 0.0075% Kathon CG. Antibodies of interest were serially diluted 3-fold with a starting dilution at 1 μg/ml (mixed 1:1 with dilution buffer: PBS with 0.1% BSA and 0.05% TWEEN®-20) and incubated for 2 h at room temperature. The plates were washed four times as before. […] After another wash (as above), 50 μl/well of K-Blue® aqueous substrate (Neogen) were added, and the reaction was stopped after 5-15 min with 50 μl/well of 0.5 M […]. The optical density at 450 nm was read using an ELISA reader (Tecan). The optical density was plotted against the antibody concentration to generate concentration-response curves (FIG. 14).

The target in assay [11] is T4, G200 N-terminal neo-epitope peptide …. The assay is described as above. The procedure:
as §4, §5

Assay [12] deals with T10, recombinant C-terminal ApoE fragment G200-HIS (ApoE-G200-H299-10xHIS) (human, UniProt P02649 218-317).
T10 construct: also called G200-HIS fragment
T10 sequence (P02649 other isoform, or with tags, fused parts or gaps limits assumed): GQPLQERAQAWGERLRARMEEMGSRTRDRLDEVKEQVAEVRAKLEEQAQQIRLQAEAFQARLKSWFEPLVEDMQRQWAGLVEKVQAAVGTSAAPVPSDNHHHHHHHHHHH
The description is as above. The procedure: as §4, §5

Assay [13] has as its target T6, full-length ApoE in human brain extract …. Briefly: Western blot, human AD brain extract, hybridoma supernatant (data not shown for 21C3). From the text: Selectivity evaluation and human target binding in Alzheimer's disease brain extracts by Western blot analysis: The Western blot analysis described below was used to evaluate selective binding of monoclonal antibodies with affinity for the N-terminal neo-epitope of ApoE fragments […], starting at G200, without binding to ApoE full-length protein, in human brain extracts from an Alzheimer's disease patient. Fresh frozen brain tissue from the Alzheimer's disease patient was homogenized in RIPA 2% SDS extraction buffer, followed by centrifugation at 16000×g for 1 h. The subsequent supernatant was subjected to standard protein concentration determination.
RIPA 2% SDS brain extract containing 80 μg total protein was mixed with 2×Laemmli sample buffer, boiled for 5 min at 95° C. and loaded onto SDS-PAGE gels (Bolt™ 12% Bis-Tris Plus 10 well, Thermo Fisher, cat. no. NW00120BOX). Gels were run for 30-40 min at 180 V, after which proteins were transferred from the gels to nitrocellulose membranes using the Trans-Blot® Turbo™ system (Bio-Rad). Membranes were blocked in Odyssey® blocking buffer for 1 h and incubated over night at room temperature with hybridoma supernatant diluted 1:1 in Odyssey® blocking buffer with 0.1% TWEEN®-20. […]

T3 sequence (P02649 19-317 C130R limits assumed): as the sequence (P02649 19-317) above, with C112R counted along it
T9 sequence (P02649 other isoform, or with tags, fused parts or gaps limits assumed): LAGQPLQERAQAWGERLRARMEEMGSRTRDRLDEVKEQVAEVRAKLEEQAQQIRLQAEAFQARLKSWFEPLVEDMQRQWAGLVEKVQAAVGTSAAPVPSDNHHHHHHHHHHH

B1: 6F4, monoclonal anti-L198 antibody (antibody, IgG1, V domains shown)
VH: EVNLEESGGDLVQPGRSLKLSCVASGFTFSDYWMNWVRQSPEKGLEWVAQIRLKSDNYVTHYVESLKGRFTISRDDSRSCVYLQMNNLRAEDTGIYYCTGHILLRRRYFDVWGTGTTVTVSS
VL: DIVMTQSQKFMSTSVGDRVSVTCEASQNVGTNVAWYQQKPGQSPKGLIYSASYRYSGVPDRFTGSGSGTDFTLTISTVQSEDLAEYFCHQFNTYPYTFGGGTTLEII
One may read the EC50 as the concentration giving half of the maximal effect. For B1, the half-maximal effective concentration (EC50) in [1] was found to be 13.5 ng/mL; in assay [9], 18.5 ng/mL. The binding result in [2] was “no binding (tested: 3000 ng/ml)”; in [3], “no binding (tested: 3000 ng/ml)”; in [4] it was “no binding (tested: 3000 ng/ml)”; in assay [5] it was “no binding (tested: 3000 ng/ml)”; in assay [6], “no binding (tested: 2 ug/ml (text))”; in assay [7], “no binding (tested: 3 µg/ml)”. Moreover, the binding result in assay [8] is recorded as “binds”.

B2: 21C3, hybridoma monoclonal antibody (unpurified supernatant) (antibody, V domains shown)
VH: EVQLVESGGDLVKPGGSLKLSCAASGFTFSSYAMSWVRQSPEKRLEWVAEISGSGSRDHYTDSVTGRFTVSRDNAKNTLYLEMSSLRSEDTAIYYCARQLTGTDYYGTDYWGQGTSVTVSS
VL: DVLMTQIPLSLPVSLGDQASISCRSSQSIVYSNGNTYLEWYLQRPGQSPKLLIYKVSNRFSGVPDRFSGSGSGTDFTLKISRVEAEDLGVYYCFQGSHLPYTFGGGTKLEIK
notes: same VH and VL as 4E6; not made as recombinant antibody
One may read the EC50 (read off the curve) as the midpoint of the concentration-response curve. With B2, the results for the binding result in [10] and in assay [13] were “no binding (tested: 1000 ng/ml)” and “no binding”, respectively. The concentration for a half-maximal effect (EC50 (read off the curve)) in assay [11] and in assay [12] was around 4 ng/mL in each case.
